Experimental data from US7053177B1, “Random peptides that bind to gastro-intestinal tract (GIT) transport receptors and related methods” (Cytogen Corporation, priority 1997, dated 2006).
Square brackets hold non-standard residues; d marks the D form. Ends that are not written are not given here. Peptide text beside a SMILES is read from it. * marks the point of attachment. Dansyl = CN(C)c1cccc2c(S(=O)(=O)*)cccc12

T1: recombinant D2H receptor domain (human D2H transporter, amino acid residues 387-685), His-tag fusion protein (human) (UniProt Q07837)
T1 sequence: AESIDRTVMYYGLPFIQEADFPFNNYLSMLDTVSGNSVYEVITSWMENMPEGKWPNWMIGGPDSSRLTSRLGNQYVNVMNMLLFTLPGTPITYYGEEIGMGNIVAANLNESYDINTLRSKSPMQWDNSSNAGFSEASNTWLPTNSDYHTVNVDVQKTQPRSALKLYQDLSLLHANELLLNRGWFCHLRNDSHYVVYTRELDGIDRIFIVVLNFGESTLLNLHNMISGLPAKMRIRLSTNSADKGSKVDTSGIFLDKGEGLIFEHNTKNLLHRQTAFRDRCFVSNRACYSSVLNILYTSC


Tests used:
[1] = test system: P100 membrane fraction of Caco-2 cells; assay: Binding of dansylated peptides to P100 fractions (peptide/particle correlation)
Description: Caco-2 cell membrane (P100) and cytosolic (S100) fractions were prepared using a modification of the method described in Kinsella, B. T., O'Mahony, D. J. and G. A. FitzGerald, 1994, J. Biol. Chem. 269(47): 29914–29919. Confluent Caco-2 cell monolayers (grown in 75 cm^2 flasks for up to 1 week at 37° C. and 5% CO2) were washed twice in Dulbecco's PBS (DPBS) and the cells were harvested by centrifugation at 1000 rpm after treatment with 10 mM EDTA-DPBS. The cells were washed 3 times in DPBS and the final cell pellet was resuspended in 3 volumes of ice cold HED buffer (20 mM HEPES (pH 7.67), 1 mM EGTA, 0.5 mM dithiothreitol, 1 mM phenylmethylsulphonyl fluoride (PMSF)). The cells were allowed to swell for 5 min on ice prior to homogenization for 30 sec. The homogenates were centrifuged at 40,000 rpm for 45 min at 4° C. The supernatant (S100) was removed and the pellet (P100) was resuspended in HEDG buffer (20 mM HEPES (pH 7.67), 1 mM EGTA, 0.5 mM dithiothreitol, 100 mM NaCl, 10% glycerol, 1 mM PMSF). Protein concentrations were determined using the Bradford assay (Bradford, M. M., 1976, Anal. Biochem. 72: 248–254).
Binding of peptide and/or peptide-coated PLGA particles to membrane (P100) and cytosolic (S100) fractions was assessed by detection of the dansyl moiety incorporated in the peptide. Costar ninety six well ELISA plates were coated with S100 and P100 fractions (100 μg/ml in 0.05 M NaHCO3) overnight at 4° C. The plates were blocked with 0.5% bovine serum albumin in DPBS for 1 h at room temperature and washed 3 times in 1% BSA-DPBS. Peptide-coated particles or peptides were dispersed in the same buffer and added to the plates at concentrations in the range 0.0325–0.5 mg/well. […] The plates were incubated for 1 h at room temperature. The wells were washed 3 times in 1% BSA-DPBS and 100 μl of goat anti-mouse IgGλ:HRP antibody (Southern Biotechnology 1060-05; 1:10,000) was added per well. The plates were incubated for 1 h at room temperature. After washing 3 times in 1% BSA-DPBS 100 μl of TMB substrate (3,3′,5′,5-tetramethylbenzidine; Microwell Peroxidase Substrate System (Kirkegaard and Perry Laboratories 50-76-00)) was added and the optical density was measured at 650 nm at various time intervals.
Binding of dansylated peptides to P100 fractions was assessed to determine if peptide binding was predictive of peptide-coated particle binding.

[2] = test system: rat gastro-intestinal tract (closed loop); assay: Transport of preselected phage libraries in rat closed loop, detected by oligonucleotide hybridization/autoradiography; settings: HPT1 pool; in words; PAX2 used at 4x concentration
Description: Four preselected phage libraries, GI-D2H, GI-hSI, GI-HPT1 and GI-hPEPT1, were constructed by pooling phage previously selected by screening random phage display libraries D38 and DC43 using the HPT1, HPEPT1, D2H and hSI receptor or binding sites located in the GIT.
In particular, phages selected in vitro to each receptor or binding site located in the GIT were amplified in E. coli, PEG-precipitated, resuspended in TBS and the titer of each phage sample was determined by plaquing in E. coli as described above. […] Using the in situ loop model described above, 0.5 ml of preselected phage library solution was injected into the tied-off portion of the duodenum/jejunum. Blood was collected into heparinized tubes from the portal vein at 0, 15, 30, 45 and 60 minutes. A blood sample was taken from the systemic circulation at the end of the experiment. Similarly, the portion of the duodenum/jejunum used for phage injection was taken at the end of the experiment.
Thirty microliters of the collected portal blood (neat and 10^−2, 10^−1, 10^−6 dilutions) was added to 30 μl E. coli K91Kan cells (overnight culture) and incubated at 37° C. for 10 min. Subsequently, 3 ml of top agarose was added and the samples were plated for plaques. One hundred microliters of the collected portal blood was added to 100 μl of E. coli K91Kan. Five milliliters of LB medium was then added and the samples were incubated at 37° C. overnight in a rotating microbial incubator. The E. coli was removed by centrifugation and the amplified phage supernatant samples were either titered directly or were PEG-precipitated, resuspended in TBS and titered. Following titration of the amplified phage, samples containing phage from each set of animals were combined, adjusting the titer of each sample to the same titer, and were plated for plaques on LB agar lates (22 cm^2 square plates). Either 12,000 or 24,000 phage were lated for plaques.
Thirty microliters of the collected systemic blood (neat and 10^−2, 10^−1, 10^−6 dilutions) was added to E. coli K91Kan cells, incubated at 37° C. for 10 min. Three ml of top agarose was then added and the samples were plated for plaques. One hundred microliters of the collected systemic blood was added to 100 μl of E. coli K91Kan, incubated at 37° C. for 10 min. Five milliliters of LB medium was then added and the samples were incubated at 37° C. overnight in a rotating microbial incubator. The E. coli was removed by centrifugation and the amplified phage supernatant samples were either titered directly or were PEG-precipitated, resuspended in TBS and titered. Following titration of the amplified phage, samples containing phage from each set of animals were combined, adjusting the titer of each sample to the same titer, and were plated for plaques on LB agar plates (22 cm^2 square plates). Either 12,000 or 24,000 phage were plated for plaques.
The intestinal tissue portion used in each closed loop was excised. […] Alternatively, the tissue (in PBS supplemented with protease inhibitors) was homogenized in an Ultra Thorex homogenizer, washed 3 times in PBS containing protease inhibitors and resuspended in PBS containing protease inhibitors (Int-G samples). In each case, serial dilutions (neat and 10^−2, 10^−4, 10^−6 dilutions) of the tissue homogenate was titered in E. coli.
The phage amplified from the portal blood, systemic blood and intestinal tissue was plated for plaques. […] The filters were air-dried, and the DNA was cross-linked to the filter (UV crosslinking: 2 min, high setting). The filters were incubated in pre-hybridization buffer (6×SSC, 5× Denhardt's solution, 0.1% SDS, […] yeast tRNA) at 40° C.–45° C. for at least 60 min.
Synthetic oligonucleotides, (22-mers), complimentary to regions coding for the receptor or binding sites used to create the preselected phage library, were synthesized (see Table 14 below).

[3] = molecular target: BSA (Bos taurus, UniProt P02769); assay: Receptor ELISA of phage on BSA (background control protein); format: binding; settings: Table 5; phage panned on HPT-1
BSA, sequence (P02769 25-607): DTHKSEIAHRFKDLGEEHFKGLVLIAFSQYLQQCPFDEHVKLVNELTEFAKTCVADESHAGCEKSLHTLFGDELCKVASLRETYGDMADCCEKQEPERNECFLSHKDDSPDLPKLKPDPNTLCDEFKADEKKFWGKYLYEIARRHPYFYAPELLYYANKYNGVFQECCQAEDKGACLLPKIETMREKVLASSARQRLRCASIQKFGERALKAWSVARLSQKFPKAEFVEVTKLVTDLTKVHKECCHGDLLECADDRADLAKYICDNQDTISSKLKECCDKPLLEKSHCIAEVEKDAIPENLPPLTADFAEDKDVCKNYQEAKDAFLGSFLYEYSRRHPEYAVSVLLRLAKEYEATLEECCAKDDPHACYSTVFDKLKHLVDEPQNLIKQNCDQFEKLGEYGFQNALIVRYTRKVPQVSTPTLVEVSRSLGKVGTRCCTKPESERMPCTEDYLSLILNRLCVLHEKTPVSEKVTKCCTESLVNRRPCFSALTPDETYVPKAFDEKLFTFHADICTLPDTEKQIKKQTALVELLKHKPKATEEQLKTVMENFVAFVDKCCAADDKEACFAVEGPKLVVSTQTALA
Description: 96 well plates were coated overnight with GIT receptor, BSA and, optionally, IDE (insulin degrading enzyme, an irrelevant His-fusion protein)or hTF. The plates were blocked for one hour with 0.5% BSA-PBS. After clarification, the amplified phage were diluted 1:100 in 1% BSA plus 0.05% Tween 20 in PBS and added to the plates. Following incubation of the plates on a rotator for 1 to 2 hours, the plates were washed 5 times with 1% BSA plus 0.05% Tween 20 in PBS. Dilute anti-M13-HRP conjugate (anti-M13 antibody linked to horse radish peroxidase (HRP)) was added to all the wells and the plate was incubated for one hour on a rotator. After the plates were washed 5 times, as described above, TMB substrate was added to the wells. The plates were read at 650 nm absorbance.

[4] = Peptide stability in simulated intestinal fluid (SIF); format: in vitro ADME; settings: rank of relative stability to SIF
Description: Peptide (3.25 mg) was dissolved in 3.25 ml of 10,000 fold diluted SIF solution at 37° C. Aliquots (0.7 ml) of the digestion solution were then withdrawn at <1 min, 1h, 3h, and 21h or 24h. The samples were quickly passed through a syringe filter (Millipore Millex-GV 0.22 μm, part# SLGV025LS, lot# H2BM95250) and 300 μL of the filtered solution was immediately injected onto a Hewlett-Packard HPLC system equipped with a C-8 column (Applied Biosystems column and guard column: column-p/n 0711-0023 Spheri-5 ODS 5 μm, 220×4.6 mm). The products were eluted at 1.5 ml/min using an acetonitrile-water gradient. The major fluorescent peaks were collected, lyopholized and identified by MS analysis.

[5] = test system: P100 membrane fraction of Caco-2 cells; assay: Dansylated peptide ELISA: relative binding of PAX2 and HAX42 peptides to P100 fractions (ratio to ZElan021); settings: PAX2 peptides, first column, ratio to ZElan021 = 1.00
How it was run: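 Plates coated overnight at 4 °C with Caco-2 P100 membrane fraction (normally 100 μg/ml, pH 9.6) and blocked with 2% Marvel/PBS were incubated with dansylated peptides. Binding was detected with anti-mouse λ-HRP and TMB, read at 650 nm, and expressed relative to ZElan021.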

[6] = molecular target: bovine serum albumin (bovine) (UniProt P02769); assay: phage ELISA on coated BSA
bovine serum albumin (bovine), sequence (P02769 25-607 limits assumed): as the sequence (P02769 25-607) above

[7] = molecular target: T1, recombinant D2H receptor domain (human D2H transporter, amino acid residues 387-685), His-tag fusion protein (human); assay: phage ELISA on coated D2H
[8] = molecular target: T1, recombinant D2H receptor domain (human D2H transporter, amino acid residues 387-685), His-tag fusion protein (human); assay: phage ELISA, OD on D2H over OD on BSA

| Molecule | Rel. Stab. [4] | OD [6] [OD 650 nm] | OD [7] [OD 650 nm] | D2H/BSA [8] | also measured |
| --- | --- | --- | --- | --- | --- |
| SDHALGTNLRSDNAKEPGDYNCCGNGNSTGRKVFNRRRPSAIPT (not fully specified; cysteine pairing not given here) [HAX42] | – | – | – | – | Peptide/particle binding correlation ([1]; in words): correlated well; Presence in the portal or systemic circulation [2]: found in the portal and systemic circulation; BSA [3]: 0.071 OD |
| C[C@@H](O)[C@H](NC(=O)[C@@H](N)CCCCNS(=O)(=O)c1cccc2c(N(C)C)cccc12)C(=O)N[C@@H](CCCNC(=N)N)C(=O)N[C@@H](CCCCN)C(=O)N[C@@H](CO)C(=O)N[C@@H](CO)C(=O)N[C@H](CCCNC(=N)N)C(=O)N[C@@H](CO)C(=O)N[C@@H](CC(N)=O)C(=O)N1CCC[C@H]1C(=O)N[C@@H](CCCNC(=N)N)C(=O)NCC(=O)N[C@H](CCCNC(=N)N)C(=O)N[C@@H](CCCNC(=N)N)C(=O)N[C@@H](Cc1c[nH]cn1)C(=O)N1CCC[C@H]1C(=O)NCC(N)=O [ZElan054, H2N-K(dns)TRKSSrSNPRGrRHPG-CONH2] (H-K(Dansyl)TRKSS[dR]SNPRG[dR]RHPG-NH2) | 2 | – | – | – | – |
| C[C@@H](O)[C@H](NC(=O)[C@@H](N)CCCCNS(=O)(=O)c1cccc2c(N(C)C)cccc12)C(=O)N[C@H](CCCNC(=N)N)C(=O)N[C@@H](CCCCN)C(=O)N[C@@H](CO)C(=O)N[C@@H](CO)C(=O)N[C@H](CCCNC(=N)N)C(=O)N[C@@H](CO)C(=O)N[C@@H](CC(N)=O)C(=O)N1CCC[C@H]1C(=O)N[C@H](CCCNC(=N)N)C(=O)NCC(=O)N[C@H](CCCNC(=N)N)C(=O)N[C@H](CCCNC(=N)N)C(=O)N[C@@H](Cc1c[nH]cn1)C(=O)N1CCC[C@H]1C(=O)NCC(N)=O [ZElan053, H2N-K(dns)TrKSSrSNPrGrrHPG-CONH2] (H-K(Dansyl)T[dR]KSS[dR]SNP[dR]G[dR][dR]HPG-NH2) | 1 | – | – | – | – |
| C[C@@H](O)[C@H](NC(=O)[C@@H](N)CCCCNS(=O)(=O)c1cccc2c(N(C)C)cccc12)C(=O)N[C@@H](CCCNC(=N)N)C(=O)N[C@@H](CCCCN)C(=O)N[C@@H](CO)C(=O)N[C@@H](CO)C(=O)N[C@@H](CCCNC(=N)N)C(=O)N[C@@H](CO)C(=O)N[C@@H](CC(N)=O)C(=O)N1CCC[C@H]1C(=O)N[C@@H](CCCNC(=N)N)C(=O)NCC(=O)N[C@@H](CCCNC(=N)N)C(=O)N[C@@H](CCCNC(=N)N)C(=O)N[C@@H](Cc1c[nH]cn1)C(=O)N1CCC[C@H]1C(=O)NCC(N)=O [ZElan031] (H-K(Dansyl)TRKSSRSNPRGRRHPG-NH2) | 3 | – | – | – | – |
| H-K(Dansyl)STPPSREAYSRPYSVDSDSDTNAKHSSHNRRLRTRSRPNG-NH2 [ZElan018] | – | – | – | – | Binding of dansylated peptide to P100 fraction ([1]; repeat assay, compared with scrambled PAX2 control): indistinguishable from the scrambled PAX2 control; Binding value at 20 μg/ml ([5]; 20 μg/ml): −0.33; Binding value at 50 μg/ml ([5]; 50 μg/ml): 0.95 |
| SQGSKQCMQYRTGRLTVGSEYGCGMNPARHATPAYPARLLPRYR [phage DCX11] | – | 0.071 | 0.222 | 3 | – |
| RYKHDIGCDAGVDKKSSSVRGGCGAHSSPPRAGRGPRGTMVSRL [phage DCX8] | – | 0.063 | 0.163 | 3 | – |
| RYSGLSPRDNGPACSQEATLEGCGAQRLMSTRRKGRNSRPGWTL [phage DCX42] | – | 0.065 | 0.158 | 2 | – |
